# In patent US8658672:
# T1: F-HIF-1α peptide (788-822 amino acids)
# T1 chain: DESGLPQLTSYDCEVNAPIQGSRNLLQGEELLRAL
# B1: recombinant human FIH-1, histidine-tagged fusion protein (protein)
# chain: MAATAAEAVASGSGEPREEAGALGPAWDESQLRSYSFPTRPIPRLSQSDPRAEELIENEEPVVLTDTNLVYPALKWDLEYLQENIGNGDFSVYSASTHKFLYYDEKKMANFQNFKPRSNREEMKFHEFVEKLQDIQQRGGEERLYLQQTLNDTVGRKIVMDFLGFNWNWINKQQGKRGWGQLTSNLLLIGMEGNVTPAHYDEQQNFFAQIKGYKRCILFPPDQFECLYPYPVHHPCDRQSQVDFDNPDYERFPNFQNVVGYETVVGPGDVLYIPMYWWHHIESLLNGGITITVNFWYKGAPTPKRIEYPLKAHQKVAIMRNIEKMLGEALGNPQEVGPLLNTMIKGRYN
# Legend:
# [1] = target: [35S]-labeled human HIF-1α protein, Q16665
# Chain of [35S]-labeled human HIF-1α protein, Q16665 (Q16665 401-826): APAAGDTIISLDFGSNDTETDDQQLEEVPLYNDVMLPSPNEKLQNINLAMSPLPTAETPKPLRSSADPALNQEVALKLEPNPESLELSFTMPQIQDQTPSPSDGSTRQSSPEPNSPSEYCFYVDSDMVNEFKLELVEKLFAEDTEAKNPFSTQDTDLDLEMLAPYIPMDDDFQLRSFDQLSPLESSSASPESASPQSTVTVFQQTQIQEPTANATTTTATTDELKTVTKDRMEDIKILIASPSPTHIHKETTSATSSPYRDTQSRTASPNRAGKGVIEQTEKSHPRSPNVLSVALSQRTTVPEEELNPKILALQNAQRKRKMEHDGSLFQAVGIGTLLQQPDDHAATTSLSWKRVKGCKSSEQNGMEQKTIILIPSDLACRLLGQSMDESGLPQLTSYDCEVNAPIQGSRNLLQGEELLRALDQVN
# [2] = target: T1, F-HIF-1α peptide (788-822 amino acids)
protein,measurement,setting,value
B1,interaction of [35S]-HIF-1α with bead-bound GST-CBP after reaction with FIH-1,[1],the addition of FIH-1 reduced significantly the interaction between HIF-1α and CBP
same,MALDI-TOF mass of the peptide after incubation with FIH-1 (asparagine hydroxylation),[2],after treatment with FIH-1 the peptide gave a new MALDI-TOF peak corresponding to an increase of molecular weight of 16
